Measured values reported in PMC4776207.

Molecular target: ISAV s8ORF2 protein (protein encoded by the largest open reading frame of gene segment 8) (infectious salmon anaemia virus (ISAV), strain Glesvaer/2/90)
Experiment: non-reducing SDS-PAGE with western blot

ISAV s8ORF2 protein (protein encoded by the largest open reading frame of gene segment 8) (natural protein)
stoichiometry N: 2
